First the molecules themselves.
B1: PRT-221 (enzyme)
chain: MEVVEVWPYGQNPNGKTEILSQTEDSESLQRLRDIEDFQAEKKMQNVVYTKWLDGVDVKDHDFRKIVDGNIAYYATPLLNGRGFYDINKDFNRDSDKCAAAVAANMFHYWLDINRDNVDRFLRQNPEKHGIIELPDGQLKLSDFLNTYESDHGYRDKSKLFDFISNNFNGPVWTDKLLDNYINGYAYNYKYGRTIEDPTKNTSKINFFKEVFNEKILTNNHSIRNQNEFSVLLSEALYTGKAIGLSYGPAGLRHSLGHIISVWGADLDADGNVVAIYVTDSDDKKLTIGDERVGLKRYKISTDDENRLRLTAYEETHNTGGQIRGLWTLDTGKQAWADYFDKTEQTGTDQAEQLEHHHHHH
B2: PRT-222 (enzyme)
chain: MEVVEVWPYGQNPNGKTEILSQTEDSESLQRLRDIEDFQAEKKMQNVVYTKWLDGVDVKDHDFRKIVDGNIAYYATPLLNGRGFYDINKDFNRDSDKCAAAVAANMFHYWLDINRDNVDRFLRQNPEKHGIIELPDGQLKLSDFLNTYESDHGYRDKSKLFDFISNNFNGPVWTDKLLDNYINGYAYNYKYGRTIEDPTKNTSKINFFKEVFNEKILTNNHSIRNQNEFSVLLSEALYTGKAIGLSYGPAGLRHSLGHIISVWGADLDADGNVVAIYVTDSDDKKLTIGDERVGLKRYKISTDDEGRLRLTAYEETHNTGGQIRGLWTLDTGKYAWADYFDKTEQTGTDQAEQLEHHHHHH
B3: PRT-226 (enzyme)
chain: MEVVEVWPYGQNPNGKTEILSQTEDSESLQRLRDIEDFQAEKKKQNVVYTKWLDGVDVDDHDFRKIVDGNTEYYATPLLNGRGFYDINKDFNRDSDKCAAAVAANMFHYWLDRNRDNVDRFLRQNPEKHGIIELPDGQLKLSDFLNTYESDHGYRDKSKLFDFISNNFNGPVWTNKLLDNYINGYGYNYKYGRTIEDPTKNTSKINFFKEVFNEKILTNNHSIRNQNEFSVLLSEALYTGKAIGLSYGPAGLRHSLGHIISVWGADLDADGNVVAIYVTDSDDKKLTIGDERVGLKRYKISTDDEGRARLTAYEETDNTGGQIRGLWTLDTGKQAWADYFDKTEQTGTDQAEQLEHHHHHH
B4: PRT-223 (enzyme)
chain: MEVVEVWPYGQNPNGKTEILSQTEDSESLQRLRDIEDFQAEKKKENVVYTKWLDGVDVKDHDFRKIVDGNIAYYATPLLNGRGFYDINKDFNRDSDKCAAAVAANMFHYWLDINRDNVDRFLRQNPEKHGIIELPDGQLKLSDFLNTYESDHGYRDKSKLFDFISNNFNGPVWTDKLLDNYINGYAYNYKYGRTIEDPTKNTSKINFFKEVFNEKILTNNHSIRNQNEFSDLLSEALYTGKAIGLSYGPAGLRHSLGHIISVWGADLDADGNVVAIYVTDSDDKKLTIGDERVGLKRYKISTDDENRLRLTAYEETHNTGGQIRGLWTLDTGKQAWADYFDKTEQTGTDQAEQLEHHHHHH
B5: PRT-225 (enzyme)
chain: MEVVEVWPYGQNPNGKTEILSQTEDSESLQRLRDIEDFQAEKKKENVVYTKWLDGVDVKDHDFRKIVDGNIEYYATPLLNGRGFYDINKDFNRDSDKCAAAVAANMFHYWLDINRDNVDRFLRQNPEKHGIIELPDGQLKLSDFLNTYESDHGYRDKSKLFDFISNNFNGPVWTDKLLDNYINGYAYNYKYGRTIEDPTKNTSKINFFKEVFNEKILTNNHSIRNQNEFSVLLSEALYTGKAIGLSYGPAGLRHSLGHIISVWGADLDADGNVVAIYVTDSDDKKLTIGDERVGLKRYKISTDDENRARLTAYEETDNTGGQIRGLWTLDTGKQAWADYFDKTEQTGTDQAEQLEHHHHHH
B6: PRT-224 (enzyme)
chain: MEVVEVWPYGQNPNGKTEILSQTEDSESLQRLRDIEDFQAEKKKQNVVYTKWLDGVDVKDHDFRKIVDGNIAYYATPLLNGRGFYDINKDFNRDSDKCAAAVAANMFHYWLDINRDNVDRFLRQNPEKHGIIELPDGQLKLSDFLNTYESDHGYRDKSKLFDFISNNFNGPVWTDKLLDNYINGYAYNYKYGRTIEDPTKNTSKINFFKEVFNEKILTNNHSIRNQNEFSVLLSEALYTGKAIGLSYGPAGLRHSLGHIISVWGADLDADGNVVAIYVTDSDDKKLTIGDERVGLKRYKISTDDEGRLRLTAYEETHNTGGQIRGLWTLDTGKQAWADYFDKTEQTGTDQAEQLEHHHHHH
B7: PRT-219 (enzyme)
chain: MEVVEVWPYGQNPNGKTEILSQTEDSESLQRLRDIEDFQAEKKKQNVVYTKWLDGVTVDDSDFRKIKDGNTEYYATPLLNGRGFYDINKDFNRDSDKCAAAVAANMFHYWLDRNRDNVDRFLKQNPEKHGIIELPDGQLKLSDFLNTYESDNNYRDKSKLFDFISKNFNGPVWTNKLLDNYINGYGYNYKYGRTIEDPTKNTSKINFFKKVFNEKILTNVHQIFNYNEFSTLLSEALYTGKAIGLSYGPGGLRHSLGHIISVWGADLDADGNVVAIYVTDSDDKKLTIGDERVGLKRYKISTDDEGRARLTAYTETDNTGGQVRGIWTLDTGKQAWADYFDKTEQTGTDQAEQLEHHHHHH
B8: PRT-218 (enzyme)
chain: MEVVEVWPYGQNPNGKTEILSQTEDSESLQRLRDIEDFQAEKKKQGVVYTKWLDGVNVDDHEFRKITDGNTEYYATPLLNGRGYYDINKDFNRDSDKCAAAVAANMFHYWLDRNRDNVDRFLRQNPDKHGIIELPDGQLKLSDFLNTYESDHDYRDKSKLFDFISNNFNGPVWTNKLLDNYINGYGYNYKYGRTIEDPTKNTSKINFFKEVFNGKLLTDNHSIRNKNEFSSKLSEALYTGKAIGLSYGPAGLRHSLGHIISVWGADLDEDGNVVAIYVTDSDDKKLTIGDERVGLKRYKVSYDDEGRARLTAYEETDNTGGEIRGLYTLDTGKQYWADYFDKTEQTGTDQAEQLEHHHHHH
B9: PRT-220 (enzyme)
chain: MEVVEVWPYGQNPNGKTEILSQTEDSESLQRLRDIEDFQAEKKKQGVVYTKWLDGVNVDDHEFRKITDGNTEYYATPLLNGRGYYDINKDFNRDSDKCAAAVAANMFHYWLDRNRDNVDRFLRQNPDKHGIIELPDGQLKLSDFLNTYESDHDYRDKSKLFDFISNNFNGPVWTNKLLDNYINGYGYNYKYGRTIEDPTKNTSKINFFKEVFNGKLLTDNHSIRNKNEFSSKLSEALYTGKAIGLSYGPAGLRHSLGHIISVWGADLDEDGNVVAIYVTDSDDKKLTIGDERVGLKRYKVSYDDEGRARLTAYEETDNTGGEIRGLWTLDTGKQYWADYFDKTEQTGTDQAEQLEHHHHHH
B10: PRT-376 (enzyme)
chain: MVTSVWTKGVTPPTNFTYGEDVLHAPYVANQGWYDITKLFNGKDDLLCGAATAGNMLHWWFDQNKEQIENYLKKHPEKQKINFNGEQMFDVKEAIDTKDSQLDSKLFEYFKEKAFPYLSTKHLGVFPDHVIDMFINGYRLSLTNHGPTPVKRGSKDPRGGIFDAVFTRGDQSKLLTNRHDFKEKTLKEISDLIKQELTEGKALGISHTYANVRINHVINLWGADFDAEGNLEAIYVTDSDSNASIGMKKYFVGVNSNGKVAISAKEIEEDNIGAQVLGLFTLSTGQDIWNQTN
B11: PRT-280 (enzyme)
chain: MVTSVWTKGVTPPAKFTQGEDVFHAPYVANQGWYDITKTFNGKDDLLCGAATAGNMLHWWFDQNKEKIEAYLKKHPDKQKIMFGDQELLDVRKVINTKGDQTNSELFNYFRDKAFPNLSARRIGVMPDLVLDMFINGYYLNVYKTQTTDVNRTYQEKDRRGGIFDAVFTRGDQSKLLTSRHDFKEKNLKEISDLIKKELTEGKALGLSHTYANVGINHVINLWGADFDSNGNLKAIYVTDSDSNASIGMKKYFVGVNSSGKVAISAKEIKEDNIGAQVLGLFTLSTGQDSWNQTN
B12: PRT-288 (enzyme)
chain: MVTSVWTKGVTPPAKFTQGEDVFHAPYDANQGWYDITKEFNGKDDLLCGAATAGNMLHWWFDQNKEKIEAYLKKHPDKQKIMFGDQELLDVRKVINTKGDQTNSELFNYFRDKAFPNLSARRIGVMPDLVLDMFINGYYLNVYKTQTTDVNRTYQEKDRRGGIFDAVFTRGDQSKLLTSRHDFKEKNLKEISDLIKKELTEGKALGLSHTYANVRIGHVINLWGADFDSNGNLKAIYVTDSDSNASIGMKKYGVGVNSAGKVAISAKEIKEDNIGAQVLGLFTLSTGQDSWNQTN
Further: test concentration or dose not given here.

The first assay has as its target pooled human IgG (human). The assay is described as follows: cell-based or functional assay.
As for B1, the “Enzyme Activity Endpoint Assay (purified): Fab′2” value was 117 ng/µL, the “Enzyme Activity Endpoint Assay (purified): Fc” value was 439 ng/µL, the “Enzyme Activity Endpoint Assay (purified): IgG” value was found to be 653 ng/µL and the “Enzyme Activity Endpoint Assay (purified): scIgG” value was 461 ng/µL.
Take B2: the “Enzyme Activity Endpoint Assay (purified): Fab′2” value was found to be 487 ng/µL, the “Enzyme Activity Endpoint Assay (purified): Fc” value is 78 ng/µL, the “Enzyme Activity Endpoint Assay (purified): IgG” value was found to be 1550 ng/µL and the “Enzyme Activity Endpoint Assay (purified): scIgG” value came to 21 ng/µL.
Regarding B3, the “Enzyme Activity Endpoint Assay (purified): Fab′2” value was 0 ng/µL, the “Enzyme Activity Endpoint Assay (purified): Fc” value was found to be 0 ng/µL, the “Enzyme Activity Endpoint Assay (purified): IgG” value amounted to 1960 ng/µL and the “Enzyme Activity Endpoint Assay (purified): scIgG” value worked out at 0 ng/µL.
B4: the “Enzyme Activity Endpoint Assay (purified): Fab′2” value was 189 ng/µL, the “Enzyme Activity Endpoint Assay (purified): Fc” value stood at 391 ng/µL, the “Enzyme Activity Endpoint Assay (purified): IgG” value is 375 ng/µL and the “Enzyme Activity Endpoint Assay (purified): scIgG” value worked out at 316 ng/µL.
The like results for B5 were, in that order, 0 ng/µL, 63 ng/µL, 1500 ng/µL and 0 ng/µL.
With B6, the “Enzyme Activity Endpoint Assay (purified): Fab′2” value was found to be 217 ng/µL, the “Enzyme Activity Endpoint Assay (purified): Fc” value is 382 ng/µL, the “Enzyme Activity Endpoint Assay (purified): IgG” value was determined as 344 ng/µL and the “Enzyme Activity Endpoint Assay (purified): scIgG” value was found to be 314 ng/µL.
The like results for B7 were, in that order, 104 ng/µL, 407 ng/µL, 886 ng/µL and 443 ng/µL.
Take B8: the “Enzyme Activity Endpoint Assay (purified): Fab′2” value was determined as 0 ng/µL, the “Enzyme Activity Endpoint Assay (purified): Fc” value came to 39 ng/µL, the “Enzyme Activity Endpoint Assay (purified): IgG” value was 1780 ng/µL and the “Enzyme Activity Endpoint Assay (purified): scIgG” value is 0 ng/µL.
Consider B9, for which the “Enzyme Activity Endpoint Assay (purified): Fab′2” value worked out at 0 ng/µL, the “Enzyme Activity Endpoint Assay (purified): Fc” value was 61 ng/µL, the “Enzyme Activity Endpoint Assay (purified): IgG” value turned out to be 2320 ng/µL and the “Enzyme Activity Endpoint Assay (purified): scIgG” value worked out at 0 ng/µL.

The target in the next assay is pooled human IgG (human IgG1, 2, 3 and 4) (human). Description: cell-based or functional assay.
As to B10, the “Enzyme Activity Endpoint Assay: Fab′2” value turned out to be 496 ng/µL, the “Enzyme Activity Endpoint Assay: Fc” value came out at 325 ng/µL, the “Enzyme Activity Endpoint Assay: IgG” value was found to be 0 ng/µL and the “Enzyme Activity Endpoint Assay: scIgG” value was 196 ng/µL.
The like results for B11 were, in that order, 423 ng/µL, 305 ng/µL, 319 ng/µL and 0 ng/µL.
Consider B12, for which the “Enzyme Activity Endpoint Assay: Fab′2” value amounted to 439 ng/µL, the “Enzyme Activity Endpoint Assay: Fc” value stood at 334 ng/µL, the “Enzyme Activity Endpoint Assay: IgG” value was 348 ng/µL and the “Enzyme Activity Endpoint Assay: scIgG” value was 0 ng/µL.

The values are drawn from US20250027068A1 (published 2025).
